Assay results as given in PMC5384453, “A multi-functional PEGylated gold(III) compound: potent anti-cancer properties and self-assembly into nanostructures for drug co-delivery” (Chemical Science, 2016).

How the values were obtained:
human cancer cell lines = experiment: In vitro cytotoxicity toward cancer cells compared to cisplatin (MTT); format: cell-based; conditions: MTT 72 h
Description: The in vitro cytotoxicity of 1–3 and Au1a to human cancer cell lines (HeLa, NCI-H460, HCT116, A2780) and the cisplatin- and doxorubicin-resistant cancer cell lines (A2780cis and A2780adr), as well as normal human colon mucosal epithelial cell line (NCM460), non-tumorigenic immortalized liver cells (MIHA) and normal lung fibroblast cells (CCD-19Lu), was evaluated using a 3-(4,5-dimethyl-2-thiazolyl)-2,5-diphenyltetrazolium bromide (MTT) assay (Table 1; Fig. S5a ^†). […] The low toxicity of 1 was also found in experiments with non-tumorigenic liver L02 and gliocyte CHEM-5 cells (Table S5 ^†). […]
The gold content of the nanocomposites was determined by dissolving the nanocomposites in conc. […]
The content of DOX in the nanocomposites was measured as follows. […] The solution was then diluted and filtered, and the content of DOX in the nanocomposite was determined by UPLC with photodiode array detector using daunorubicin hydrochloride (3.6 µM) as the internal standard. […]
hydrochloride standard over the peak area of daunorubicin hydrochloride (3.6 µM) in the UPLC chromatograms of the doxorubicin hydrochloride standard spiked with daunorubicin hydrochloride (3.6 µM). The encapsulation efficiency of DOX by nanostructures of 1 was calculated by the equation: […]
which reflected the amount of blue formazan formed. IC50 values were then determined by CompuSyn S6 from three independent measurements. […]

[1] = In vivo biodistribution by ICP-MS in nude mice bearing HCT116 xenografts; conditions: single-dose i.v., 24 h post-treatment
Source text: Significant pulmonary hemorrhage in the alveoli and a thickening of alveolar walls were found. Also, apoptotic hepatocytes and swollen renal epithelial cells were found, leading to subsequent shrinkage of kidney tubules. […] The lower systemic toxicity of 1 can be explained by the lower accumulation of 1 in the organs of mice treated at its effective dosage, as compared to that of 3 and Au1a (Fig. S23 ^†). […] This can be attributable to the nanostructures of 1, which may lead to in vivo tumor accumulation by the EPR effect.[55] […]
point of tumor growth inhibition study, the mice treated with complex 1, 3 and Au1a, respectively, were sacrificed and tissues including liver, spleen, lung, kidney and heart were harvested. The tissues were digested with 10% HCl in concentrated HNO3 (0.1 g of tissue/1 mL). The solution mixture was heated at 60 °C for 15 h, and then diluted 50 times by ultra-pure water for ICP-MS analysis.
Determination of in vivo biodistribution of complex 1, 3 and Au1a by ICP-MS.
Nude mice bearing HCT116 xenografts were treated with 1 (13 mg/kg), or equal molar amount of Au1a (2 mg/kg) or 3 (2 mg/kg) through intravenous injection. After 24 h of the injection, the mice were sacrificed and tissues from tumor, liver, spleen, lung, kidney and heart were harvested. The tissues were digested with 10% HCl in concentrated HNO3 (0.1 g of tissue/1 mL). […]

Substance: [Au(TPP–COO–PEG5000–OCH3)]Cl [Compound 1]
- times more cytotoxic than cisplatin (human cancer cell lines): 5.1–76.9 times
- higher accumulation in tumor compared to mice treated with 3 ([1]; equal molar amount (1 13 mg kg^–1, 3 2 mg kg^–1)): 2.0 fold
- higher accumulation in tumor compared to mice treated with Au1a ([1]; equal molar amount (1 13 mg kg^–1, Au1a 2 mg kg^–1)): 3.3 fold
